One series has as its system A2780. As to the kind of experiment: Caspase Glo 3/7 assay. The series is classed as cell-based, human. On the procedure: (§1) Furthermore, cellular models were treated the above-mentioned pharmacological drugs and apoptotic effect was evaluated by caspase activity.
(§2) Data are expressed as the mean±standard deviation of at least 3 experiments in triplicate. *P<0.05 versus CTR for all treatments tested.

For another series, the system named is DLD1. Description: Caspase Glo 3/7 assay. The series is classed as cell-based, human. On the procedure: as §1, §2
In series [1] the test system is anaplastic astrocytoma cancer stem cells. Description: Caspase Glo 3/7 assay. The series is classed as cell-based, human. Here is the method: as §1, §2
The test system of the next series is SHSY-5Y. Description: MTT cell viability assay. The format is cell-based, human. The settings on record: 96 hours, 6 μg/ml. From the text: K. Neuroblastoma cell line (SHSY-5Y) line is a cell line isolated from a bone marrow biopsy taken from a patient with neuroblastoma. SHSY cells are often used as in vitro models of oncological pathology and neuronal differentiation.
Background: Formazan colour is commonly taken as a measure of viable cells.

In series [2] the test system is human tumor GSC-derived xenograft. Description: Gene expression of GSC-derived xenograft after in vivo treatment. More on the design: species or system mice. The following applies: xenograft GSCs; RealTime PCR. On the procedure: The analysis was performed by the assessment of gene expression profile on human tumor GSC-derived xenograft. Gene expression analysis were conducted by Real-Time PCR, run in triplicate, using 18S as endogenous control. Samples have been normalized to untreated CTRL. The analysis was conducted on genes related to FIG. 30A apoptosis, FIG. 30B inflammation, FIG. 30C proliferation.
(§3) Tissues were processed and total RNA was extracted following TRI-Reagent protocol and quantified with NanoDrop 1000 Spectro-photometer (Thermo Fisher Scientific). Reverse transcriptase reaction was executed using TranScriba Kit (A&A Biotechnology), loading 1 μg of RNA (A260/A280>1.8), according to manufacturer's instructions. qRT-PCR was performed using StepOnePlus™ (Thermo Fisher Scientific), 1 μg of cDNA, forward and reverse human primers (250 nM each) Titan HotTaq EvaGreen® qPCR Mix (Bioatlas). Data were normalized to 18S expression, used as endogenous control. Relative gene expression was determined using the 2-ΔΔCt method (FIG. 30).

The test system of another series is PC-3. As to the kind of experiment: MTT cell viability assay. The series is classed as cell-based, human. The settings on record: 96 hours, 6 μg/ml. From the text:
(§4) F. Prostate cancer cell lines (PC-3 and LNCAP); human prostate cancer cells used in cancer research and drug development. […] have been reported to be overexpressed and associated with poor prognosis and reduced survival in prostate cancer patients, and are considered predictive markers of aggressive prostate cancer behavior.

For the next series, the system named is LNCAP. As to the kind of experiment: MTT cell viability assay. The series is classed as cell-based, human. The following applies: 96 hours, 6 μg/ml.
From the text: as §4

Series [3] is described as follows: Hematological toxicity, blood count. The series is classed as in vivo. The following applies: mice; IV 10 mg/Kg; 18 days. Here is the method:
Blood samples (100 μL) were collected into K3EDTA coated tubes, which were placed on a rotary mixer for at least 30 min, then analyzed for hematological analysis.
FIGS. 27 and 28 refer to blood count of mice treated intravenously (IV) for 18 days (T18) with anti-EPO at 10 mg/Kg. (A) RBC: red blood cells; (B) HGB: hemoglobin; (C) HCT: hematocrit; (D) MCV: mean corpuscular volume; (E) MCH: mean corpuscular hemoglobin; (F) MCHC: mean corpuscular hemoglobin concentration; (G) RDW: red cell distribution width; (H) RET: reticulocyte Count; (I) PLT: platelets. Data are means±SD (FIG. 27) and A) WBC: white blood cells; (B) NEUT: neutrophils; (C) LYMP: lymphocytes; (D) MONO: monocytes; (E) EOS: eosinophils; (F) BASO: basophils. Data are means±SD (FIG. 28).

Series [4] deals with HOC84 stem cells. The settings on record: naturally resistant to carboplatin, 96 h, CPT 40 μg/mL.
Protocol: HOC84, which are naturally resistant to carboplatin (CPT), were cultured for 96 h in basal condition supplemented with 40 μg/mL of CPT. Cell viability was assessed by 3-(4,5-Dimethylthiazol-2-yl)-2,5-Diphenyl-tetrazoliumBromide (MTT) assay, as a function of redox potential (FIG. 24). […] Then, culture media were replaced with fresh media containing the specific treatments, or in BM as a control condition (CTR).
Test was performed in triplicate after 96 h of treatment, by replacing culture media with 100 μL of fresh media added with 10 μL of MTT 5 mg/ml in D-PBS. After 4 h of incubation, media were removed and cells were lysed with 100 μL of 2-propanol/formic acid (95:5, by vol) for 10 min.
For series [5], the system named is HOC84 stem cells. As to the kind of experiment: Gene expression by RealTime PCR. The format is cell-based, human. The following applies: 72 h. Here is the method: as §3, with “The analysis was performed by the assessment of gene expression by RealTime PCR on genes related to apoptosis (FIG. 23A), proliferation (FIG. 23B), angiogenesis (FIG. 23C), and inflammation (FIG. 23D). HOC84 stem cells (2×10^5)” for “Tissues”, “seeded into 25 cm2 collagen-coated culture flasks. […] At the end,” for “processed and”, “reverse” for “reverse human”, “2−ΔΔCt” for “2-ΔΔCt”, “23).” for “30).”

B1: anti-EPO (C4): isolated anti-Erythropoietin monoclonal antibody, VL SEQ ID NO:6, VH SEQ ID NO:14, hybridoma DSM ACC 3370 (antibody, listed as Homo sapiens, V domains shown)
VH: EVKLQESGGGLVQPGGSLKLSCAASGFTFSTYTMSWVRQTPEKRLEWVAYISNGGDRTYYPDTVKGRFTISRDDAKNTLFLQMSSLKSEDTAMYYCARHNITTVPFTMDYWGQGTSVTVSS
VL: DIVLTQSPASLAVSLGQRATISCRASESVDYYGTGLMQWYQQRPGQPPKLLIYGASNVGSGVPARFSGSGSGTDFSLNIHPVEGDDIAMYFCQQTRKVPSTFGGGTKLEIK
modifications: VH amino acid sequence; VL amino acid sequence
Usually mortality stands for the percentage killed. In the case of B1, the “increment of apoptosis (caspase 3/7 activation)” value amounted to 234% in the series with A2780, 217% in the series on DLD1 and 205% in series [1]. For the same molecule, the “cells initially plated dead” value in the series with SHSY-5Y was determined as 62%; in the series with PC-3, 71%; in the series with LNCAP, 74%. The “gene expression on tumoral cells after in vivo treatment” value in series [2] is “induced inhibition cancer stem cell proliferation, increase apoptosis and inflammation”. The “blood count (hematological parameters)” value in [3] was “no significant variations in all hematological parameters analyzed”. In the series with HOC84 stem cells [4], this molecule displayed a mortality of 66%. Also, the “expression of genes related to angiogenesis” value in the series on HOC84 stem cells [5] is “significantly inhibits proliferation and angiogenesis”. In addition, in the series on HOC84 stem cells [5], the “expression of genes related to apoptosis” value was “increases apotosis and inflammation”. Besides, the “expression of genes related to inflammation” value in the series with HOC84 stem cells [5] is “higher expressed”.
